Measurements from patent US20190233494A1 (Sanofi, published 2019).
Starred links: 1 amine or outer side, 2 acyl side, 3 side chain; linkers in the order of their positions; H or OH if unused. Non-standard residues stand in square brackets, D forms with d. Groups on a side chain read outwards from the residue. *: point of attachment. TTDS = 4-[3-[2-[2-(3-aminopropoxy)ethoxy]ethoxy]propylamino]-4-oxo-butanoyl; γGlu = O=C(O)[C@H](CCC(=O)[*:2])N[*:1]; Stearoyl = CCCCCCCCCCCCCCCCCC(=O)*; Palmitoyl = CCCCCCCCCCCCCCCC(=O)*; αMeK = C[C@](N)(CCCCN)C(=O)O; hLys = NCCCCC[C@H](N)C(=O)O; AEEA = NCCOCCOCC(=O)O; Aib = CC(C)(N)C(=O)O

Target: T1, RXFP1 receptor (endogenous, on OVCAR5 cells) (UniProt Q9HBX9 1-757, limits assumed)
T1 sequence (looked up): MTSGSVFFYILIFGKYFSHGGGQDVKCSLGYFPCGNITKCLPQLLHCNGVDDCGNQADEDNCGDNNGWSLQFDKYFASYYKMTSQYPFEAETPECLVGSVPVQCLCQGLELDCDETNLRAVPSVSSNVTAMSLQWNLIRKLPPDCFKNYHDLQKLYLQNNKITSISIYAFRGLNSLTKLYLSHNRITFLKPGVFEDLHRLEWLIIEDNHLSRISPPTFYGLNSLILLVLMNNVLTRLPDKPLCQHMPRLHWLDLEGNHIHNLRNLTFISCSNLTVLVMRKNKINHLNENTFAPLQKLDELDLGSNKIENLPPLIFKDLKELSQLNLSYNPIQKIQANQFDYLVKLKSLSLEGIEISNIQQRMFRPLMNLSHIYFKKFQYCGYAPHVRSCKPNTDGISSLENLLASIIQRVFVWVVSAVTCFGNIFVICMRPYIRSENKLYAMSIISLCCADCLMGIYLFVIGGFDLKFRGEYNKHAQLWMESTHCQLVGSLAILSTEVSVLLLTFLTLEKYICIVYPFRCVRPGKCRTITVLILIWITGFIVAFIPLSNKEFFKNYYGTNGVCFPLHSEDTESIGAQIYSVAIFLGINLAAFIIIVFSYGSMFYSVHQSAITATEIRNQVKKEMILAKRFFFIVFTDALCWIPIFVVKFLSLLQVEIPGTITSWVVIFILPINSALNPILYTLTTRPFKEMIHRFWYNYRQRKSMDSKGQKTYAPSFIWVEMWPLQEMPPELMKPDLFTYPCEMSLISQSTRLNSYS
Test: cell-based or functional assay

EC50 (nM), OVCAR 5 cells (cAMP)	EMax, OVCAR 5 cells (cAMP)	Binder
0.43 nM	96%	Ac-LEGREKVRAK(Ac)I[Aib][Aib]EGK([AEEA-AEEA-AEEA-AEEA-γGlu-γGlu-γGlu-Stearoyl])STFS[αMeK]RAK(Ac)-NH2 (SMILES CCCCCCCCCCCCCCCCCC(=O)N[C@@H](CCC(=O)N[C@@H](CCC(=O)N[C@@H](CCC(=O)NCCOCCOCC(=O)NCCOCCOCC(=O)NCCOCCOCC(=O)NCCOCCOCC(=O)NCCCC[C@H](NC(=O)CNC(=O)[C@H](CCC(=O)O)NC(=O)C(C)(C)NC(=O)C(C)(C)NC(=O)[C@@H](NC(=O)[C@H](CCCCNC(C)=O)NC(=O)[C@H](C)NC(=O)[C@H](CCCNC(=N)N)NC(=O)[C@@H](NC(=O)[C@H](CCCCN)NC(=O)[C@H](CCC(=O)O)NC(=O)[C@H](CCCNC(=N)N)NC(=O)CNC(=O)[C@H](CCC(=O)O)NC(=O)[C@H](CC(C)C)NC(C)=O)C(C)C)[C@@H](C)CC)C(=O)N[C@@H](CO)C(=O)N[C@H](C(=O)N[C@@H](Cc1ccccc1)C(=O)N[C@@H](CO)C(=O)N[C@@](C)(CCCCN)C(=O)N[C@@H](CCCNC(=N)N)C(=O)N[C@@H](C)C(=O)N[C@@H](CCCCNC(C)=O)C(N)=O)[C@@H](C)O)C(=O)O)C(=O)O)C(=O)O) [peptide of SEQ ID NO: 26]
0.62 nM	88%	Ac-LEGRE[hLys]VRAK(Ac)I[Aib][Aib]EGK([TTDS-TTDS-TTDS-γGlu-γGlu-γGlu-Palmitoyl])STFS[αMeK]RAK(Ac)-NH2 [peptide of SEQ ID NO: 28]
1.8 nM	98%	Ac-LEGRERVRAK(Ac)I[Aib][Aib]EGK([TTDS-TTDS-TTDS-γGlu-γGlu-γGlu-Palmitoyl])STFS[αMeK]RAK(Ac)-NH2 [peptide of SEQ ID NO: 27]
0.15 nM	96%	Ac-LEGREKVRAK(Ac)I[Aib][Aib]EGK([TTDS-TTDS-TTDS-γGlu-γGlu-γGlu-Stearoyl])STWS[Aib]RKK(Ac)-NH2 [peptide of SEQ ID NO: 20]
36.4 nM	100%	Ac-LEGREFVRAK(Ac)I[Aib][Aib]EGK([TTDS-TTDS-TTDS-γGlu-γGlu-γGlu-Palmitoyl])STFS[αMeK]RAK(Ac)-NH2 [peptide of SEQ ID NO: 24]
0.19 nM	–	Ac-LEGRERVRAK(Ac)I[Aib][Aib]EGK([TTDS-TTDS-TTDS-γGlu-γGlu-γGlu-Palmitoyl])STWS[Aib]RRK(Ac)-NH2 [peptide of SEQ ID NO: 31]

Continued, binder first:

Binder	EC50 (nM), OVCAR 5 cells (cAMP)	EMax, OVCAR 5 cells (cAMP)
Ac-LEGREKVR[Aib]K(Ac)I[Aib][Aib]EGK([TTDS-TTDS-TTDS-γGlu-γGlu-γGlu-Palmitoyl])STFS[αMeK]RAK(Ac)-NH2 [peptide of SEQ ID NO: 29]	1.6 nM	88%
Ac-LEGREKVRAK(Ac)I[Aib][Aib]EGK([TTDS-TTDS-TTDS-γGlu-γGlu-γGlu-Palmitoyl])STFS[αMeK]RAK(Ac)-NH2 [peptide of SEQ ID NO: 3]	0.34 nM	97%
Ac-LEGREKVRAK(Ac)I[Aib][Aib]EGK([TTDS-TTDS-TTDS-γGlu-γGlu-γGlu-Stearoyl])STWS[αMeK]RAK(Ac)-NH2 [peptide of SEQ ID NO: 30]	0.21 nM	89%
LEGREKVRAXIXXEGXSTFSXRAX (Ac-L-E-G-R-E-K-V-R-A-K(Ac)-I-Aib-Aib-E-G-K(PEG2DGA-PEG2DGA-PEG2DGA-gE-gE-gE-Palm)-S-T-F-S-Mly-R-A-K(Ac)-NH2) [peptide of SEQ ID NO: 22]	1 nM	92%
LEGREKVRAXIXXEGXSTFSXRAX (Ac-L-E-G-R-E-K-V-R-A-K(Ac)-I-Aib-Aib-E-G-K(PEG2DGA-PEG2DGA-PEG2DGA-gE-gE-gE-Stea)-S-T-F-S-Mly-R-A-K(Ac)-NH2) [peptide of SEQ ID NO: 32]	0.1 nM	97%
Ac-LEGREKVRAK(Ac)I[Aib][Aib]EGK([TTDS-TTDS-γGlu-γGlu-γGlu-Palmitoyl])STWS[dK]RKK(Ac)-NH2 [peptide of SEQ ID NO: 18]	1.54 nM	92%
Ac-LEGREKVRAK(Ac)I[Aib][Aib]EGK([AEEA-AEEA-AEEA-AEEA-γGlu-γGlu-γGlu-Stearoyl])STWS[Aib]RKK(Ac)-NH2 (SMILES CCCCCCCCCCCCCCCCCC(=O)N[C@@H](CCC(=O)N[C@@H](CCC(=O)N[C@@H](CCC(=O)NCCOCCOCC(=O)NCCOCCOCC(=O)NCCOCCOCC(=O)NCCOCCOCC(=O)NCCCC[C@H](NC(=O)CNC(=O)[C@H](CCC(=O)O)NC(=O)C(C)(C)NC(=O)C(C)(C)NC(=O)[C@@H](NC(=O)[C@H](CCCCNC(C)=O)NC(=O)[C@H](C)NC(=O)[C@H](CCCNC(=N)N)NC(=O)[C@@H](NC(=O)[C@H](CCCCN)NC(=O)[C@H](CCC(=O)O)NC(=O)[C@H](CCCNC(=N)N)NC(=O)CNC(=O)[C@H](CCC(=O)O)NC(=O)[C@H](CC(C)C)NC(C)=O)C(C)C)[C@@H](C)CC)C(=O)N[C@@H](CO)C(=O)N[C@H](C(=O)N[C@@H](Cc1c[nH]c2ccccc12)C(=O)N[C@@H](CO)C(=O)NC(C)(C)C(=O)N[C@@H](CCCNC(=N)N)C(=O)N[C@@H](CCCCN)C(=O)N[C@@H](CCCCNC(C)=O)C(N)=O)[C@@H](C)O)C(=O)O)C(=O)O)C(=O)O) [peptide of SEQ ID NO: 21]	0.65 nM	93%
Ac-LEGREQVRAK(Ac)I[Aib][Aib]EGK([TTDS-TTDS-TTDS-γGlu-γGlu-γGlu-Palmitoyl])STFS[αMeK]RAK(Ac)-NH2 [peptide of SEQ ID NO: 25]	28.7 nM	100%
Ac-LEGRELVRAK(Ac)I[Aib][Aib]EGK([TTDS-TTDS-TTDS-γGlu-γGlu-γGlu-Palmitoyl])STFS[αMeK]RAK(Ac)-NH2 [peptide of SEQ ID NO: 23]	11.1 nM	92%
Ac-LEGREKVRAK(Ac)I[Aib][Aib]EGK([AEEA-AEEA-AEEA-γGlu-γGlu-γGlu-Palmitoyl])STWS[Aib]RKK(Ac)-NH2 (SMILES CCCCCCCCCCCCCCCC(=O)N[C@@H](CCC(=O)N[C@@H](CCC(=O)N[C@@H](CCC(=O)NCCOCCOCC(=O)NCCOCCOCC(=O)NCCOCCOCC(=O)NCCCC[C@H](NC(=O)CNC(=O)[C@H](CCC(=O)O)NC(=O)C(C)(C)NC(=O)C(C)(C)NC(=O)[C@@H](NC(=O)[C@H](CCCCNC(C)=O)NC(=O)[C@H](C)NC(=O)[C@H](CCCNC(=N)N)NC(=O)[C@@H](NC(=O)[C@H](CCCCN)NC(=O)[C@H](CCC(=O)O)NC(=O)[C@H](CCCNC(=N)N)NC(=O)CNC(=O)[C@H](CCC(=O)O)NC(=O)[C@H](CC(C)C)NC(C)=O)C(C)C)[C@@H](C)CC)C(=O)N[C@@H](CO)C(=O)N[C@H](C(=O)N[C@@H](Cc1c[nH]c2ccccc12)C(=O)N[C@@H](CO)C(=O)NC(C)(C)C(=O)N[C@@H](CCCNC(=N)N)C(=O)N[C@@H](CCCCN)C(=O)N[C@@H](CCCCNC(C)=O)C(N)=O)[C@@H](C)O)C(=O)O)C(=O)O)C(=O)O) [peptide of SEQ ID NO: 19]	11.5 nM	94%
